Here are results for 1 variant from IntAct's records for PubMed 24553140.

B1: Autophagy-related protein 16-1 (Mus musculus), Q8C0J2 (parent)
chain: MSSGLRAADFPRWKRHIAEELRRRDRLQRQAFEEIILQYTKLLEKSDLHSVLTQKLQAEKHDMPNRHEISPGHDGAWNDSQLQEMAQLRIKHQEELTELHKKRGELAQLVIDLNNQMQQKDKEIQMNEAKISEYLQTISDLETNCLDLRTKLQDLEVANQTLKDEYDALQITFTALEEKLRKTTEENQELVTRWMAEKAQEANRLNAENEKDSRRRQARLQKELAEAAKEPLPVEQDDDIEVIVDETSDHTEETSPVRAVSRAATKRLSQPAGGLLDSITNIFGRRSVSSIPVPQDIMDTHPASGKDVRVPTTASYVFDAHDGEVNAVQFSPGSRLLATGGMDRRVKLWEAFGDKCEFKGSLSGSNAGITSIEFDSAGAYLLAASNDFASRIWTVDDYRLRHTLTGHSGKVLSAKFLLDNARIVSGSHDRTLKLWDLRSKVCIKTVFAGSSCNDIVCTEQCVMSGHFDKKIRFWDIRSESVVREMELLGKITALDLNPERTELLSCSRDDLLKVIDLRTNAVKQTFSAPGFKCGSDWTRVVFSPDGSYVAAGSAEGSLYVWSVLTGKVEKVLSKQHSSSINAVAWAPSGLHVVSVDKGSRAVLWAQP

The variants in this assay derive from B1. The settings on record: with mlp3a_mouse Map1lc3a.
As to T300A, the “effect of a mutation on the interaction” value is listed as “decreasing interaction”.
